Source: publication PMC8472270

Columns and labels:
[1] = biological target: Exendin-4 (Heloderma suspectum) (UniProt P26349); experiment: static and dynamic light scattering (SLS/DLS); peptide concentration series in PBS, pH 7.4, 23 °C; scattering angle 90°; relative molecular mass and Stokes radius; monomer to oligomer
Exendin-4_F22R [2] = experiment: concentration-dependent Stokes radius of self-association (method not named in legend); conditions: parent: est. 2.3; read off a plot
Exendin-4_F22R [3] = experiment: concentration-dependent relative molecular mass of self-association (method not named in legend); conditions: parent: est. 3.2; read off a plot

Row | Substance | stoichiometry N [1] | other: Stokes radius RS (Exendin-4_F22R [2]) [nm] | other: relative molecular mass Mrel (Exendin-4_F22R [3])
1 | Exendin-4 (from UniProt P26349 48-87) (peptide) | 3 | – | –
2 | Exendin-4 (from UniProt P26349) F22R | – | 1.6 | 0.95
